# Earlier results as cited in article PMC7556843.
# Columns and labels:
# [1] = target: linear tetraubiquitin (Ub4) (Homo sapiens) (UniProt P0CG47)
# [2] = target: linear diubiquitin (Ub2) (Homo sapiens) (UniProt P0CG47)
# NEMO 242-419, sequence (Q9Y6K9 242-419): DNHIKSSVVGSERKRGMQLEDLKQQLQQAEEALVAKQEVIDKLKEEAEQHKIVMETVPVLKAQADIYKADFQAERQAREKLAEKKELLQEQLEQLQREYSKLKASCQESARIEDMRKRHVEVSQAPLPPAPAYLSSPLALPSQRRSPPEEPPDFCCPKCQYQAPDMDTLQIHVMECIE
substance,measurement,setting,value
NEMO 242-419 (from UniProt Q9Y6K9),Kd,[1],300 nM
same,Kd,[2],3000 nM
